{"source": "patent US20210309722A1", "biological_target": "GLP-1 receptor", "experiment": "cell-based or functional assay", "data": [{"substance": "native human GLP-1 (7-37) (from UniProt P01275 21-180) (peptide)", "values": [{"measurement": "EC50, cAMP production (cAMP-inducible luciferase reporter) in HEK293 cells expressing GLP1R", "result": 3.1, "unit": "pM"}]}]}
